Here are results for one molecule from patent publication US20060205037A1, “Modified transferrin fusion proteins” (priority 2003, published 2006).

One assay has as its system diabetic db/db mice. Briefly: overnight fast and IPGTT in diabetic mice after SC administration. The class given is in vivo. To be noted: SC at 9 pm, fasted overnight; GLP-1-Tf 1 or 10 mg. The method, then:
A group of diabetic mice were given Tf or GLP-1-Tf via SC administration at 9 pm, fasted overnight and an IPGTT performed the next morning. The fasted Tf-treated animals had lower fasting blood glucose than ad libitum fed animals (238±39 versus 358±23 mg/dl; compare 0 time/fasted animals of FIG. 10c with 0 time/fed animals of FIG. 10a), and additionally, the animals given 1 or […] had lower fasting blood glucose (132±27 mg/dl) than those given Tf alone.

The test system of a further assay is db/db mice. Put plainly: β-cell proliferation (BrdU) and β-cell mass in db/db mice. It counts as in vivo. To be noted: 10 mg/kg IP, third day. The protocol:
db/db mice, 6 per time point, received one IP injection of Tf (10 mg/kg) or GLP-1-Tf (10 mg/kg) and were sacrificed 1, 2 and 3 days later for measurement of β-cell proliferation and 3, 5, 8 and 10 days later for measurement of islet mass. Sixty mg/kg 5-bromo-2-deoxyuridine (BrdU, Sigma) was injected IP 6 hours before sacrifice. BrdU is a thymidine analog that is incorporated during S-phase of cell mitosis. Pancreata were removed, fixed overnight in 4% buffered formalin, processed for embedding in paraffin and histological sections (4 μm) mounted on poly-1-lysine-coated glass slides. BrdU was detected with a BrdU antibody (Sigma, 1:500 and also confirmed with Zymed antibody, 1:250) and BrdU staining kit (Zymed Laboratories Inc). Five to six hundred islets from each condition were then visualized and the number of islets that contained BrdU+ cells as well as the percent BrdU+ nuclei per total number of islet cells was quantified. For insulin staining and determination of β-cell mass histological sections were treated with a guinea-pig insulin antibody (Linco). […] The total pancreatic area and β-cell positive area for every image were quantified using MetaMorph 4.6.3 software (Universal Imaging Inc., West Chester).

B1: Tf: transferrin with the two N-linked glycosylation sites eliminated, expressed in S. cerevisiae; control protein (protein)
chain: VPDKTVRWCAVSEHEATKCQSFRDHMKSVIPSDGPSVACVKKASYLDCIRAIAANEADAVTLDAGLVYDAYLAPNNLKPVVAEFYGSKEDPQTFYYAVAVVKKDSGFQMNQLRGKKSCHTGLGRSAGWNIPIGLLYCDLPEPRKPLEKAVANFFSGSCAPCADGTDFPQLCQLCPGCGCSTLNQYFGYSGAFKCLKDGAGDVAFVKHSTIFENLANKADRDQYELLCLDNTRKPVDEYKDCHLAQVPSHTVVARSMGGKEDLIWELLNQAQEHFGKDKSKEFQLFSSPHGKDLLFKDSAHGFLKVPPRMDAKMYLGYEYVTAIRNLREGTCPEAPTDECKPVKWCALSHHERLKCDEWSVNSVGKIECVSAETTEDCIAKIMNGEADAMSLDGGFVYIAGKCGLVPVLAENYNKADNCEDTPEAGYFAVAVVKKSASDLTWDNLKGKKSCHTAVGRTAGWNIPMGLLYNKINHCRFDEFFSEGCAPGSKKDSSLCKLCMGSGLNLCEPNNKEGYYGYTGAFRCLVEKGDVAFVKHQTVPQNTGGKNPDPWAKNLNEKDYELLCLDGTRKPVEEYANCHLARAPNHAVVTRKDKEACVHKILRQQQHLFGSNVADCSGNFCLFRSETKDLLFRDDTVCLAKLHDRNTYEKYLGEEYVKAVGNLRKCSTSSLLEACTFRRP
The molecule B1 came in with a fasting blood glucose in the assay on diabetic db/db mice of 238 ± 39 mg/dL. Further, the “islets with 1 or more BRDU+ nuclei” value in the assay on db/db mice stood at 35%.
